In assay [1] the target is T1, soluble human B7-H3 with 6xHis tag at the carboxy terminus (human, UniProt Q5ZPR3 29-466).
T1 construct: extracellular domain; also called hB7-H3; human B7H3(4Ig)-His
T1 sequence: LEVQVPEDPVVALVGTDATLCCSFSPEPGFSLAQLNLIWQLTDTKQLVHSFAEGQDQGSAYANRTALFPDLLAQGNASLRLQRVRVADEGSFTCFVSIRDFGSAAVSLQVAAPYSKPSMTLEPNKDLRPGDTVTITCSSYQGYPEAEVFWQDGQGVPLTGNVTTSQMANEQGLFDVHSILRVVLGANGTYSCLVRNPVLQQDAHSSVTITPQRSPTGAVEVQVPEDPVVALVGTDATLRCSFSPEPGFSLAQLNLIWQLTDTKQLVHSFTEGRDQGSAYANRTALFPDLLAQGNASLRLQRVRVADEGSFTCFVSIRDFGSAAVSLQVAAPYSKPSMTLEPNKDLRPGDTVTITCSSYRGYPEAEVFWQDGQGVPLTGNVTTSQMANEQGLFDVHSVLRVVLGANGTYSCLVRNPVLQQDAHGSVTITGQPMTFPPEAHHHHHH
Nature of the assay: ELISA and SPR on soluble human B7-H3-His. The protocol:
Antibodies hBRCA84D and hBRCA69D were tested in an ELISA for binding to canine B7-H3. Briefly, soluble human B7-H3 and canine B7-H3 were expressed in CHO cells. Each soluble molecule was engineered to express a 6×His tag at the carboxy terminus to aid in purification of the expressed protein. The molecules were purified by nickel column chromatography using standard techniques. ELISA plates were coated with the soluble B7-H3 and allowed to dry. The plates were washed and blocked using standard ELISA techniques. The wells were probed with either hBRCA84D, hBRCA69D or a control hIgG. Secondary detection reagent was added and binding was determined As shown in FIG. 1A (hBRCA84D) and FIG. 1B (hBRCA69D), the antibodies were able to bind to soluble canine B7-H3 (cB7-H3). To determine binding affinity of the hBRCA84D and hBRCA69D antibodies to soluble canine B7-H3, SPR analysis was conducted. As shown in FIGS. 1C and 1D (hBRCA84D) and FIGS. 1E and 1F (BRCA69D) the binding affinities are similar to the binding of the antibodies to soluble human B7-H3 (shown in FIG. 1A and FIG. 1B, respectively).

Assay [2] addresses T2, soluble canine B7-H3 with 6xHis tag at the carboxy terminus.
T2 chain: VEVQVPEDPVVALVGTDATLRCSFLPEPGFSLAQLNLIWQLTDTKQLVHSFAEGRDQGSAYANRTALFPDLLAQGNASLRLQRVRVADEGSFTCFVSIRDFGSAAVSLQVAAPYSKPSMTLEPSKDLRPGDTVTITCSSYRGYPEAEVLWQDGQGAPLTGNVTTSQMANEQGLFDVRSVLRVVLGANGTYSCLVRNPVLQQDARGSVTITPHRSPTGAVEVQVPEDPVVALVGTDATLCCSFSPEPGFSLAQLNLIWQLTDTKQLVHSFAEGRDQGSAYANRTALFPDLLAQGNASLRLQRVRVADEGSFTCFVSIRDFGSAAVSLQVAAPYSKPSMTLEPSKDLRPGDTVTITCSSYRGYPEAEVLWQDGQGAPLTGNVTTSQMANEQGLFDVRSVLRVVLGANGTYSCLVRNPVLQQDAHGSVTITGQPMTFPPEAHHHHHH
Nature of the assay: SPR.

The target in assay [3] is T3, soluble human B7-H3 with 6xHis tag at the carboxy terminus (human, UniProt Q5ZPR3 29-466).
T3 chain: T1 sequence
Nature of the assay: SPR.

For the next assay, the target named is T4, Canine B7-H3.
T4 chain: T2 chain
In words: SPR.

The next assay addresses T5, Human B7-H3 (human, UniProt Q5ZPR3 29-466).
T5 chain: T1 sequence
Nature of the assay: SPR.

B1: hBRCA69D (humanized antibody BRCA69D) (antibody, V domains shown)
VH: QVQLVQSGAEVKKPGASVKVSCKASGYTFTSYWMQWVRQAPGQGLEWMGTIYPGDGDTRYTQKFKGRVTITADKSTSTAYMELSSLRSEDTAVYYCARRGIPRLWYFDVWGQGTTVTVSS
VL: DIQMTQSPSSLSASVGDRVTITCRASQDISNYLNWYQQKPGKAPKLLIYYTSRLHSGVPSRFSGSGSGTDFTLTISSLQPEDIATYYCQQGNTLPPTFGGGTKLEIK
notes: Residue limits are my derivation
Turning to B1, the binding result in assay [1] was “binds”. Also, the Kd in assay [2] stood at 8.4 nM; in assay [3], 8.8 nM.

B2: hBRCA84D (antibody, V domains shown)
VH: EVQLVESGGGLVQPGGSLRLSCAASGFTFSSFGMHWVRQAPGKGLEWVAYISSDSSAIYYADTVKGRFTISRDNAKNSLYLQMNSLRDEDTAVYYCGRGRENIYYGSRLDYWGQGTTVTVSS
VL: DIQLTQSPSFLSASVGDRVTITCKASQNVDTNVAWYQQKPGKAPKALIYSASYRYSGVPSRFSGSGSGTDFTLTISSLQPEDFATYYCQQYNNYPFTFGQGTKLEIKR
On to B2, for which the figures for the equilibrium dissociation constant (Kd) with Canine B7-H3 and in the assay with Human B7-H3 were 39 nM and 45 nM, respectively.

For the origin of these results see patent US20140255407A1 (MacroGenics, published 2014).
